# Measured values: the nanobody polyreactivity screen of Harvey et al. (2022)
# Assay: yeast display, Sf9 membrane polyspecificity reagent, FACS + sequencing; frameworks hold sequencing errors
# Method in brief: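 A synthetic nanobody library was expressed on Saccharomyces cerevisiae BJ5465 by galactose induction for 36–48 hours. The library was stained for 1 hour at 4 °C with 10% biotinylated, detergent-solubilized Sf9 membrane reagent and enriched with streptavidin microbeads before FACS. Low and high (top ~1%) gates were set on anti-HA fluorescence for expression and streptavidin fluorescence for reagent binding, and each polyreactivity label reflects the gate of origin.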
row,Sequence,polyreactivity (PSR sort gate)
1,QVQLVESGGGLVQAGGSLRLSCAASGSIFYDYTMGWSRQAPGKERELVAAINSGGSTNYADSVKGRFTISRDNAKNTVYLQMNSLKPEDTAVYYCAAEPQFAFLDSRLWGSDYWGQGTQVTVSS,low polyreactivity
2,QVQLVESGGGLVQAGGSLRLSCAASGSIFYENAMGWYRQAPGKERELVAAISRSGGSTYYADSVKGRFTISRDNAKNSVYLQMNSLKPEDTAVYYCAADVYVFIGDYWGQGTQVTVSS,low polyreactivity
3,QVQLVESGGGLVQAGGSLRLSCAASGSIFYENVMGWYRQAPGKERELVAGISRSGGRTYYADSVKGRFTISRDNAKNTVYLQMNSLKPEDTAVYYCNAARVYLSEWGQGTQVTVSS,high polyreactivity
4,QVQLVESGGGLVQAGGSLRLSCAASGSIFYFNAMGWYRQAPGKDRELVAAITYNGGSTRYADSVKGRFTISRDNAKNTVYLQMNSLKPEDTAVYYCAARAKYGPEDGYWGQGTQVTVSS,high polyreactivity
5,QVQLVESGGGLVQAGGSLRLSCAASGSIFYFNAMGWYRQAPGKERELVAAINWRGDRTYYADSVKRRFTISRDNAKNTVYLQMNSLKPEDTAVYYCNAVRVHAYSTGEYGYWGQGTQVTVSS,high polyreactivity
6,QVQLVESGGGLVQAGGSLRLSCAASGSIFYFNAMGWYRQAPGKERELVAGISARGGSTYYADSVKGRFTISRDNAKNTVYLQMNSLKPEDTAVYYCAAYGTTRSRKRGFAWWGYDYWGQGTQVTVSS,low polyreactivity
7,QVQLVESGGGLVQAGGSLRLSCAASGSIFYFNAMGWYRQAPGKERELVARISGSSGRTYFADSVKGRFTISRDNAKNTVYLQMNSLKPEDTAVYYCAARYYTSATMDYWGQGTQVTVSS,high polyreactivity
8,QVQLVESGGGLVQAGGSLRLSCAASGSIFYFNAMGWYRRAPGKERELVAGISARGGSTYYADSVKGRFTISRDHAKNTVYIQMNSLKPEDTAGYYCAAYGTTRSRKRAFAWWGYDYWGQGTQVTVSS,low polyreactivity
9,QVQLVESGGGLVQAGGSLRLSCAASGSIFYFYAMGWYRQAPGKERELVAASRFTGGTTYYADSVKGRFTISRDNAKNTVYLQMNSLKPEDTAVYYCAKQTSYWSRGYDYWGQGTQVTVSS,low polyreactivity
10,QVQLVESGGGLVQAGGSLRLSCAASGSIFYFYAMGWYRQAPGKERELVATITRGGSTYYADSVKGRFTISRDNAKNTVYLQMNSLKPEDTAVYYCAADGWYWTYIVEYWGQGTQVTVSS,high polyreactivity
11,QVQLVESGGGLVQAGGSLRLSCAASGSIFYFYAMGWYRQAPGKERELVATITRRTGRTYYADSVKGRFTISRDNAKNTVYLQMNSLKPEDTAVYYCAARPKGPYGVWYNYWGQGTQVTVSS,high polyreactivity
12,QVQLVESGGGLVQAGGSLRLSCAASGSIFYFYTMGWYRQAPGKEREFVAAINGIGGSTYYADSVKGRFTISRDNAKNTVYLQMNSLKPEDTAVYYCAADAPWFKRNARKYNFWGQGTQVTVSS,low polyreactivity
13,QVQLVESGGGLVQAGGSLRLSCAASGSIFYGNAMGRYRQAPGKERELVAGITGYGSPTYYADSVKGRFTISRDNAKNTVYLQMNSLKPEVTAVYYCARLTRTSRGMYDYWGQGTQVTVSS,high polyreactivity
14,QVQLVESGGGLVQAGGSLRLSCAASGSIFYGNAMGWDRQAPGNARELVAAISWNGGSTYYADSVKGRFTISRDNAKNTVYLQMNSLKPEDTAVYYSNADYYYEVDSWGQGTQVTVSS,low polyreactivity
15,QVQLVESGGGLVQAGGSLRLSCAASGSIFYGNAMGWYRQAPGKERELVAAITRRGGRTYYADSVKGRFTISRDNAKNTVYLQMNSLKPEDTAVYYCNKDVGVAVEMGYWGQGTQVTVSS,high polyreactivity
16,QVQLVESGGGLVQAGGSLRLSCAASGSIFYGNGMGWYRQAPGKERELVAVISVSGGRTFYADSVKGRFTISRDNAKNTVYLQMNSLKPEDTAVYYCATRTYRVDPEFGYWGQGTQVTVSS,high polyreactivity
17,QVQLVESGGGLVQAGGSLRLSCAASGSIFYGNTMGWYRQAPGKERELVAAITWSGDSTYYADSVKGRFTISRDNAKNTVYLQMNSLKPEDTAVYYCNADQTGVYYAGEGNYWGQGTQVTVSS,low polyreactivity
18,QVQLVESGGGLVQAGGSLRLSCAASGSIFYGYAMGWFRQAPGKEREFVADITSSGVSTYYADSVKGRFTISRDNAKNSVYLQINSLKPEDTAVYYCAKLRRYYSSVYHKFVFYTDDYWGQGSQVTVSS,high polyreactivity
19,QVQLVESGGGLVQAGGSLRLSCAASGSIFYGYAMGWYRQAAGKERELVARITGSGGDTSYADSVKGRFTISRDNSKNTVYLQMNSLKPEDTALYYCNTDLYITYTLYTGSEYDYWGQGTQVTVSS,low polyreactivity
20,QVQLVESGGGLVQAGGSLRLSCAASGSIFYGYAMGWYRQAPGKERELVAAIRYSDGSTYYADSVKGRFTISRDNAKNTVYLQMNSLKPEDTAVYYCAKKRRNYIGYYYWGQGTQVTVSS,high polyreactivity
21,QVQLVESGGGLVQAGGSLRLSCAASGSIFYGYAMGWYRQAPGKERELVAAITWIDGSTYYADSVKGRFTISRDNAKNPVFLQLTSLKPEDTAVYYCAAGGYFYSFYYWGQGTQVTVSS,low polyreactivity

row,Sequence,polyreactivity (PSR sort gate)
1,QVQLVESGGGLVQAGGSLRLSCAASGSIFYGYAMGWYRQATGKERELVAAITSGGSTYYADSVKGRFTISRDNAKNTVYLQMNSLKPEDTAVYYCAADYPSRYWRIDYEYWGQGTQVTVSS,high polyreactivity
2,QVQLVESGGGLVQAGGSLRLSCAASGSIFYGYTMGWSRQAPGKEREFVAAITGSGGSTYYADSVKGRFTISRDTPKNTVYVQMNTLKPEDTAVYYCAARRYVNRRYDYWGQGTQVTVSS,high polyreactivity
3,QVQLVESGGGLVQAGGSLRLSCAASGSIFYGYTMGWYRQEPRKERELVAAIRKSGGSTNYADSVKGRFTISRDTAKNTVYLQMNSLKPEDTALYNCAADYYRRRGYYWGQGTQVTVSS,high polyreactivity
4,QVQLVESGGGLVQAGGSLRLSCAASGSIFYHNAMGWYRQAPGKERELVAAISYRTGRTYYADSVKGRFTISRDNAKNTVYLQMNSLKPEDTAVYYCAAPYSWGQGTQVTVSS,high polyreactivity
5,QVQLVESGGGLVQAGGSLRLSCAASGSIFYHNTMGWYIQAPGKERELITYYADSVKGRFTISRDNAKNTVYLQMNSLKPEDTAVYYCAASPVSRTGPGDYDFWGQGTQVTVSS,low polyreactivity
6,QVQLVESGGGLVQAGGSLRLSCAASGSIFYHYAMGWSRQAPGKERELVAAITRSGGSTYYADSVKGRFTISRDNAKHTVYLQMNSLKPEDTAVYYCAKDPDSYNFLTSNWYDYWGQGTQVTVSS,low polyreactivity
7,QVQLVESGGGLVQAGGSLRLSCAASGSIFYHYAMGWYRQAPGKERELVAAISQSGGGTYYADSVKGRFTISRDNAKNTVYLQMNSLKPEDTAVYYCNRLSKQKQEFDYWGQGTQVTVSS,high polyreactivity
8,QVQLVESGGGLVQAGGSLRLSCAASGSIFYINAMGWYRQAPGKERELVAAINRGGSTNYADSVKGRFTISRDNAKNTVYLQMNSLKPEDTAVYYCAAYIYKTYRYYYWGQGTQVTVSS,high polyreactivity
9,QVQLVESGGGLVQAGGSLRLSCAASGSIFYIYALGWYRQAPGKERELVAAISRSGGRTYYADSVKGRFTISRDNAKNTVYLQMNSLKPEDTGVYYCAARRYTAYDYWGQGTQVTVSS,high polyreactivity
10,QVQLVESGGGLVQAGGSLRLSCAASGSIFYIYAMGWYRQAPGKERELVARISTGGSTHYADSVKGRFTISRDNAKNTVYLQMNSLKPEDTAVYYCDAPYWLWDGEGEYDYWGQGTQVTVSS,low polyreactivity
11,QVQLVESGGGLVQAGGSLRLSCAASGSIFYIYAMGWYRQAPGKERELVATISHRGGSTYYADSVKGRFTISRDNAKNTVYLQMNSLKPEDTAVYYCAARSYYSWGRPLPSFNYWGQGTQVTVSS,high polyreactivity
12,QVQLVESGGGLVQAGGSLRLSCAASGSIFYKNAMGWYRQAPGKERELVAAITYSGGSTYYADSVKGRFTISRDNAKNTVYLQMNSLKTEDTAVYYCAADIGVYGERREEEYDYWGQGTQVTVSS,low polyreactivity
13,QVQLVESGGGLVQAGGSLRLSCAASGSIFYKNAMGWYRQAPGKERELVAVISWSGGSTSYADSVKGRFTISRDNAKNTVYLQMNSLKPEDTAVYYCAKEYFTDYLYEYDYWGQGTQVTVSS,low polyreactivity
14,QVQLVESGGGLVQAGGSLRLSCAASGSIFYKYTMGWYRPAPGKERELVAAISRSGGRTYYADSVKGRFTISRDNAKNTVYLQMNSLKPEDTAVYYCARDLKIVEYDYWGQGTQVTVSS,low polyreactivity
15,QVQLVESGGGLVQAGGSLRLSCAASGSIFYLNAMGWYRQAPGKERELVATISNGGSTNYADSVKGRFTISRDNAKNTVYLQMNSLKPEDTAVYYCATGVIREGDYWGQGTKVTVSS,low polyreactivity
16,QVQLVESGGGLVQAGGSLRLSCAASGSIFYLYAMGWYRQAPGKERELVAAITSIGGSTYADSVKGRFTISRDNAKNTVYLQMNSLKPEDTAVYYCNADGLYEKWGPWTVPYYYWGQGTQVTVSS,low polyreactivity
17,QVQLVESGGGLVQAGGSLRLSCAASGSIFYLYAMGWYRQAPGKERELVATISTGSGRTYYADSVKGRFTISRDNAKNTVYLQMNSLKPEDTAVYYCAASRTLRKHRYEYWGQGTEVTVSS,high polyreactivity
18,QVQLVESGGGLVQAGGSLRLSCAASGSIFYPYAMGWYRQAPGKERELVAAISSGGRTYYADSVKGRFTISRDNAKNTVYLQMNSLKPEDTAVYYCAARPKAYGRPPGYYWGQGTQVTVSS,high polyreactivity
19,QVQLVESGGGLVQAGGSLRLSCAASGSIFYPYAMGWYRQATGKERELVAVITDTGSTYYADSVKGRFTISRDNAKNTVYLQMNSLKPEDTAVYYCYRTSYVKTPTKRYNYWGQGTQVTVSS,low polyreactivity
20,QVQLVESGGGLVQAGGSLRLSCAASGSIFYQNAMGWSRQAPGKEWELVAAISWSGGSTYYADSVKGRFTISRDNAKNTDFLQMNSLKPEDTAVYYCNKYVRFRGGAYVTGYDYWGQGTQVTVSS,high polyreactivity
